Assay results: US20250289891A1 (AUTOLUS, published 2025)

T1: Plate bound FcRH5 antigen (UniProt Q96RD9)
T1 sequence (looked up): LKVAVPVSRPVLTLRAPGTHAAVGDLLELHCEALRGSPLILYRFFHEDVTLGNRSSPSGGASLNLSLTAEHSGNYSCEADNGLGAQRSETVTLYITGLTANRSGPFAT

T2: Recombinant purified FcRH5 Ig-8 domain (UniProt Q96RD9 743-850, limits assumed)
T2 construct: domain: Ig8
T2 sequence (looked up): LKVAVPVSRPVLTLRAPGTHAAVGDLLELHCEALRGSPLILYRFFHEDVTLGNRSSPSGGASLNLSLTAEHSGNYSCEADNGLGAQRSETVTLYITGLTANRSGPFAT

B1: Anti-FcRH5 VHH-CAR 66831 (VHH of AU60462), on Jurkat T cells (protein, not shown: large carriers)
chain: QVQLQESGGGLVQAGGSLRLSCTASGRTSSRAAMGWFRQAPGKEREFVAVISWSGGTTAYANSVKGRFTISRDNAKNTLYLQMNSLKPEDTAVYYCAAARIFTTARNDYDHWGQGTQVTVS
B2: Anti-FcRH5 VHH-CAR 66825 (VHH of AU60387), on Jurkat T cells (protein, not shown: large carriers)
chain: QVQLQESGGGLVQAGGSLRLSCAASGRTFSTYGMGWFRQAPGKEREFVAAISRSGGATAYAASVKGRFTISRDDVKNTLYLQMNSLKPEDTAVYHCAGTRRAFSTGLRDYDYWGQGIQVTVS
B3: Anti-FcRH5 VHH-CAR 66829 (VHH of AU60460), on Jurkat T cells (protein, not shown: large carriers)
chain: QVQLQESGGGLVQAGGSLRLSCAASGRTYNNYAMGWFRQAPGKEREFVAGISRSGGMTGYAESVKGRFTISRDNAKNMVFLQMNSLKPEDTAVYYCAAYVGGFSTARRDYSYWGQGTQVTVS
B4: Anti-FcRH5 VHH-CAR 66823 (VHH of AU60385), on Jurkat T cells (protein, not shown: large carriers)
chain: QVQLQESGGGLVQAGGSLRLSCAASGRTFSTYAMAWFRQAPGKEREFVAAISGFGVVTYYADSVKGRFTISRDNAKNTLYLQMNGLKPEDTAVYYCAAGRRTSTNGGDYDYWGQGTQVTVS
B5: Anti-FcRH5 VHH-CAR 66828 (VHH of AU60390), on Jurkat T cells (protein, not shown: large carriers)
chain: QVQLQQSGGGLVQAGDSLRLSCAASGRTFSNSTMGWFRQAPGKERKFVAVISWSGGTYAYAESVKGRFTISRDNAKNTVYLQMNSLKPEDTAVYYCAAARKGWSTRGDDYDYWGQGTQVTVS
B6: Anti-FcRH5 VHH-CAR 66832 (VHH of AU60463), on Jurkat T cells (protein, not shown: large carriers)
chain: QVQLQESGGGLVQAGDSLRLSCAYSGRTFSSYAMGWFRQAPGKERVFVAAISRIGGVTTYAESVQGRFTISRDNAKNTLYLQMNALKPEDTAVYYCAAAGLVSISTTPNDYDYWGQGTQVTVS
B7: Anti-FcRH5 VHH-CAR 66836 (VHH of AU60467), on Jurkat T cells (protein, not shown: large carriers)
chain: QVQLQESGGGLVQAGDSLRLSCAASGRTFDSRPMGWFRQAPGKEREFVGAVSWRGESTYYPDSVKGRFTISRDNAKRTVYLQMNSLKPEDTAVYYCAAGEPYSGTYYYRGRDYDYWGQGTQVTVS
B8: Anti-FcRH5 VHH-CAR 66835 (VHH of AU60466), on Jurkat T cells (protein, not shown: large carriers)
chain: QVQLQQSGGGLVQAGGSLSLSCTASGRSFSNYGMGWFRQAPGKEREFVAAIGMVGGLTAYSNSAKGRFTISRDNAKNTLYLQMNSLKPEDTAVYLCAAGRRFSTSSRDYDIWGQGTQVTVS
B9: Anti-FcRH5 VHH-Fc AU60462 (AbVec.aFcRH5.dAb-MIgG2a-Fc.Clone.E04) (Fc fusion)
chain: QVQLQESGGGLVQAGGSLRLSCTASGRTSSRAAMGWFRQAPGKEREFVAVISWSGGTTAYANSVKGRFTISRDNAKNTLYLQMNSLKPEDTAVYYCAAARIFTTARNDYDHWGQGTQVTVS
notes: VHH fused to murine IgG2a Fc; not shown: murine IgG2a Fc domain
B10: Anti-FcRH5 VHH-Fc AU60471 (AbVec.aFcRH5.dAb-MIgG2a-Fc.Clone.F12) (Fc fusion)
chain: QVQLQESGGGLVQAGGSLRLSCAASGSIFSINAMGWYRQAPGKQRELVAFITSGGSTNYADSVKGRFTISRDNAKNTVYLQMNSLKPEDTAVYYCNALGGFVPSYGWGQGTQVTVS
notes: as for B9
B11: Anti-FcRH5 VHH-Fc AU60369 (AbVec.aFcRH5.dAb-MIgG2a-Fc.Clone.B03) (Fc fusion)
chain: QVQLQESGGGLVQAGGSLRLSCAASRSSFSNNAMGWYRQVPGKQRELVAFITKGGVTDYSDSVKGRFTISKDNAKNTVYLQMNSLKPEDTAVYYCNTIPFRSAWGQGTQVTVS
notes: VHH fused to murine IgG2a Fc, expi-CHO, Protein A purified; not shown: murine IgG2a Fc domain
B12: Anti-FcRH5 VHH-Fc AU60370 (AbVec.aFcRH5.dAb-MIgG2a-Fc.Clone.B04) (Fc fusion)
chain: QVQLQESGGGSVQPGGSLSLSCAASGFTFSNYAMSWVRQAPGKGPEWVAVINSDGGTASSAGSVRGRFTISRDNAKNTLYLQMNRLKPEDTAVYYCAANRGFCAGVRCLEYQYWGQGTQVTVS
notes: not shown: murine IgG2a Fc domain
B13: Anti-FcRH5 VHH-Fc AU60460 (AbVec.aFcRH5.dAb-MIgG2a-Fc.Clone.C10) (Fc fusion)
chain: QVQLQESGGGLVQAGGSLRLSCAASGRTYNNYAMGWFRQAPGKEREFVAGISRSGGMTGYAESVKGRFTISRDNAKNMVFLQMNSLKPEDTAVYYCAAYVGGFSTARRDYSYWGQGTQVTVS
notes: as for B9
B14: Anti-FcRH5 VHH-Fc AU60385 (AbVec.aFcRH5.dAb-MIgG2a-Fc.Clone.B07 as printed in Table 3; Clone B11 in Table 9) (Fc fusion)
chain: QVQLQESGGGLVQAGGSLRLSCAASGRTFSTYAMAWFRQAPGKEREFVAAISGFGVVTYYADSVKGRFTISRDNAKNTLYLQMNGLKPEDTAVYYCAAGRRTSTNGGDYDYWGQGTQVTVS
notes: as for B12
B15: Anti-FcRH5 VHH-Fc AU60463 (AbVec.aFcRH5.dAb-MIgG2a-Fc.Clone.E07) (Fc fusion)
chain: QVQLQESGGGLVQAGDSLRLSCAYSGRTFSSYAMGWFRQAPGKERVFVAAISRIGGVTTYAESVQGRFTISRDNAKNTLYLQMNALKPEDTAVYYCAAAGLVSISTTPNDYDYWGQGTQVTVS
notes: as for B12
B16: Anti-FcRH5 VHH-Fc AU60382 (AbVec.aFcRH5.dAb-MIgG2a-Fc.Clone.B07) (Fc fusion)
chain: QVQLQESGGGLVQAGGSLIVSCAASGRTFSINAMAWFRQAPGKEREFVAAIGGSGRVSSTSYADFVKGRFTISRDNAKNTVYLRMNNLEPEDTAVYYCAARRDYLPFPPESYDYWGQGTQVTVA
notes: as for B12
B17: Anti-FcRH5 VHH-Fc AU60470 (AbVec.aFcRH5.dAb-MIgG2a-Fc.Clone.F11) (Fc fusion)
chain: QVQLQESGGGLVQAEGSLRLSCAASGRTFSMYAMGWFRQAPGREREFVAAISGSARITYYGQSVKGRFTISRDNAKNTVYLQMNSLKPEDTAVYYCAASSTYTSTSGSSYNYWGQGTQVTVS
notes: as for B12
B18: Anti-FcRH5 VHH-Fc AU60464 (AbVec.aFcRH5.dAb-MIgG2a-Fc.Clone.E11) (Fc fusion)
chain: QVQLQQSGGGLVQPGGSLRLSCAAPGNIFRLNGTGWYRQAPGKQRELVAHITSGGNTDYADSVKGRFTISRDNAKNTVYLQMNSLKPEDTAVYYCNAIPFRLSWGQGTQVTVS
notes: as for B12
B19: Anti-FcRH5 VHH-Fc AU60465 (AbVec.aFcRH5.dAb-MIgG2a-Fc.Clone.E12) (Fc fusion)
chain: QVQLQESGGGLVQAGGSLRLSCVVSRNIFSLNPMGWYRQAPGKQREMVAIITDGGSTNYADSVKGRFTISRDNVKNTVYLQMNALEPEDTAVYYCNRVGGLQTWAWGQGTQVTVSS
notes: as for B12
B20: Anti-FcRH5 VHH-Fc AU60466 (AbVec.aFcRH5.dAb-MIgG2a-Fc.Clone.F01) (Fc fusion)
chain: QVQLQQSGGGLVQAGGSLSLSCTASGRSFSNYGMGWFRQAPGKEREFVAAIGMVGGLTAYSNSAKGRFTISRDNAKNTLYLQMNSLKPEDTAVYLCAAGRRFSTSSRDYDIWGQGTQVTVS
notes: as for B12

biological target: T1, Plate bound FcRH5 antigen; assay: cell-based or functional assay

Binder | Nur77-mClover positive cells after 24 h 10 µg/ml (% upregulation) | EC50 (µg/ml) of percentage Nur77 activation by plate bound FcRH5 antigen (µg/ml FcRH5 coating)
B1 | 2.59% | 
B2 | 39% | 2.42
B3 | 44.5% | 1.43
B4 | 26.5% | 1.54
B5 | 34.2% | 1.8
B6 | 38.4% | 2
B7 | 0.898% | 
B8 | 45.5% | 0.977

biological target: T2, Recombinant purified FcRH5 Ig-8 domain; assay: SPR, Biacore 8k, VHH-mIgG2a Fc captured by anti-mouse kit on CM5, FcRH5 Ig8 as analyte (500 nM, 2-fold dilutions), 1:1 Langmuir fit, 25 C
Experimental: Recombinant anti-FcRH5 antibodies in mouse IgG2a format were captured on flow cell 2 on a Series S CM5 chip (GE Healthcare), functionalised with anti-mouse capture kit according to manufacturer's recommendations (GE Healthcare). Antibodies were captured to a density of 160 RU using a Biacore 8k instrument. HBS-P+ buffer was used as running buffer in all experimental conditions. Recombinant purified FcRH5 Ig-8 domain at known concentrations (500 nM with 2-fold serial dilutions) used as the ‘analyte’ and injected over the respective flow cells with 150s contact time and 500s dissociation at 30 μl/minute of flow rate with a constant temperature of 25° C. In each experiment, flow cell 1 was unmodified and used for reference subtraction. A ‘0 concentration’ sensogram of buffer alone was used as a double reference subtraction to factor for drift. Data were fit to a 1:1 Langmuir binding model. Since a capture system was used, a local maximal analytical response (Rmax) parameter was used for the data fitting in each case.

Binder | Kd | koff | kon
B9 | 5.8 nM | 0.000293 s⁻¹ | 50500 M⁻¹ s⁻¹
B10 | 0.757 nM | 0.00025 s⁻¹ | 330000 M⁻¹ s⁻¹
B11 | 4.77 nM | 0.00246 s⁻¹ | 516000 M⁻¹ s⁻¹
B12 | 3.64 nM | 0.00028 s⁻¹ | 76800 M⁻¹ s⁻¹
B13 | 0.669 nM | 3.4e-05 s⁻¹ | 50800 M⁻¹ s⁻¹
B14 | 6.56 nM | 0.000348 s⁻¹ | 53100 M⁻¹ s⁻¹
B15 | 2.99 nM | 0.000161 s⁻¹ | 53800 M⁻¹ s⁻¹
B16 | 4.34 nM | 0.000515 s⁻¹ | 119000 M⁻¹ s⁻¹
B17 | 0.255 nM | 1.81e-05 s⁻¹ | 70800 M⁻¹ s⁻¹
B18 | 4.84 nM | 0.00289 s⁻¹ | 596000 M⁻¹ s⁻¹
B19 | 4.54 nM | 0.00306 s⁻¹ | 673000 M⁻¹ s⁻¹
B20 | 3.14 nM | 0.000469 s⁻¹ | 150000 M⁻¹ s⁻¹
